Among the data in PMC12749690 are stoichiometry N and Kd values, retold here.

For assay [1], the target named is CtpA_(S300A/K325A/Q329A) triple mutant (CtpATM) (Helicobacter pylori G27). As to the kind of experiment: cryo-EM structure; 2 mg/ml protein on Quantifoil R1.2/1.3 grids, Titan Krios 300 kV.
Assay [2] concerns the target Recombinant HP1076 protein (Helicobacter pylori). As to the kind of experiment: MST; CtpA_(S300A) diluted from 165 μM to 5.04 nM, mixed 1:1 with 45 nM RED-NHS-labelled HP1076; Monolith NT.115, 70% excitation power, 40% MST power, 20 °C.
Assay [3] deals with CtpAΔN46 (residues 47-454), wild-type H. pylori CtpA (Helicobacter pylori G27). Put plainly: crystal structure; sitting-drop vapour diffusion; wild type: 100 mM bis-Tris-HCl pH 6.5, 100 mM magnesium chloride, 25% PEG 3350, 16 °C; F105R: Morpheus condition A8.
Assay [4] has the same target. Put plainly: cryo-EM structure; 2 mg/ml protein on Quantifoil R1.2/1.3 grids, Titan Krios 300 kV.
For assay [5] the target is unchanged. As to the kind of experiment: AUC; sedimentation velocity, absorbance, 28,000 rpm, 16 °C, c(s) model in SEDFIT.
In assay [6] the target is CtpA_(F105R) mutant (Helicobacter pylori G27). As to the kind of experiment: crystal structure; sitting-drop vapour diffusion; wild type: 100 mM bis-Tris-HCl pH 6.5, 100 mM magnesium chloride, 25% PEG 3350, 16 °C; F105R: Morpheus condition A8.

Regarding “CtpA_(S300A/K325A/Q329A) triple mutant (CtpATM) (enzyme)”, the stoichiometry N in assay [1] worked out at 6.

Regarding “CtpA_(S300A) (inactive mutant of CtpAΔN46) (enzyme)”, the Kd in assay [2] was found to be 15.4 µM.

Take “CtpAΔN46 (residues 47-454), wild-type H. pylori CtpA (enzyme)”: the stoichiometry N in assay [3], in assay [4] and in assay [5] was 6 in each case.

Substance CtpA_(F105R) mutant (enzyme) showed a stoichiometry N in assay [6] of 6.
